The NTF2 design screens of Basanta et al. (2020)

Assay: protease stability score; higher = more stable; yeast display proteolysis, trypsin and chymotrypsin;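 note: relative to predicted unfolded state with 0 unfolded-like and 1 meaning tenfold more protease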

Sequence | protease stability score
DEDEHHIRTALEYLRHATETGDEELMSEMADPDVRVHVNGVELHGMESYEKWLHDVLREIRIRHVHLEDSKVIGDFVRLDLRVHTEVNGRHFRHQTILISFKYNGQWRIKSVIWR | 1.37
DNEERYMIKLLHMLWLAFLTGDEELWYKLADPHVRWTFENREIHGREQFVKEQRRIKNMRIEMELKDVRVQGDKIHTDGHLEINQGDKHIHTDVRLHLVVINGRLHEFHVTLV | 1.54
DEDEEEVRKFLHLELRSMETGDEHDLRRLADPHVRIHINGVILHGWEFFLETFRKLGFDHLRIEHVEVQGEKVHIKSRFEIGDKSFETEIIIRKVDGRWYVESIIVN | 0.873
DEEKKVAQTFLELLYRAIHTGDEDEIRRMMDPNYRMEINGKEFHGREDIVHRLVRIEKHLGFKHFHIKDMRTVGDKIDLHTEVIIGDFRWDVHIHIEKVNGRWLQTERRIE | 0.521
DEERVKQVQKKAFEAVMKGNDDEMRKIGKPNVRYEYIDEKNEGQEAVDVVIQLVKKVGAEAKVRRTEVKGDTVRAIFVYNDGDQTVQTKVEVKYEGDKVKEARVELTDEVQKVLHKG | -0.027
DEDESLAKWAVEVLFEDLRTGDEDHLRRLMDPDTRFIIGDKIFHGREKAEEWLRLNRKRVDHLESFHIHHITVDENHLRVHGRVVGTFDGVEDKYETHIFARKVNGRWHHRQLKIK | 1.49
DEWLEMAMRIIFRYLLLLATGDEDIVNHYMDPNVKIDVNGREEHGRERALEQLEEIRRQYPGLTLTHLHIEDLKVVGNYVRVDGYVEGRIDGRRIELKTEFIILKINGRWRMHSVKEH | 1.74
DETEKIVRSVVHMFLHLMHTGDWEELMKLADPNTIVHFENHRKHGREDAIRHIIEFILRADHIEVHLDEIRIQGDKVYLNLRLILDINGRRIETRVHIILVKINGRWRIHSMDVE | 1.4
DYHEEIMRKVHEFFLAMVTTGDEEMIEKLFDPHVRIDINGRDHHGRDVAVKIWEELWREIRFKHVHLHDMKSFNGVLHLHVREKVDVNGRDLIIETHFVIRKFDGQWHLHSLKIN | 1.38
SEEEEHIHRLARLYWRLWETGDEETLAHLMDPNVRQIIHVGDKEFHNVGREKIIKVTKHVFEKLGVKHIKIRDMRVINGVVEIDTEVNVDGRTFDTRIKVLIVDGRIHELRWIVE | 1.65
SEDEEMTRKYFERYIRWLVTGDPKLLSELVDPNVKLIYNGRHLHGREFLVEWEMEILREARLHSVHVRDVKLFNGRLRMDVEINIEIGDKKSVVESNIVALKVNGRWVLESYEVD | 1.42
SDEEKFFEKLLRDILHLWLTGDEDTFHQLLDPNMRSDVDGVDLHGRETVAKFLKERLKHLGIDHVQLESETAIGDKFFINTTISINGVETKMHLHFRVVNGVVHSLEVKVR | 1.26
DDALRHADTLLDQFEHHMETGDEESMTRLADPDTRTDINGQHFHGRDWWREFMRRVDHHHIRSVDYHSVRLFNGQIHFDVEIDVEIVIGDKRYRTRYHFEVVIVKIDGRWLLHRIKTE | 0.861
SELEKHIKDYFDYIFTLLLTGDWDTLWRMADPNVRFHAEGHEIHGRELWEEFIRKFKNIKVHLHRSSLIGDYLFLDGELEINGRRIRTEIELVIVNGRLTEVSHRLR | 0.807
DEWEEFVKRFLEAHVKANRTGDERLLQELIDPHVRIEFNGVELHGREIFTETISQLRIKDVNLRRYHMYDGQVEIHGELHGVFNGQEKDTKIHVREIKVDGRWKMKEYSIH | 0.994
DEDHRHARNIFQKWTHDLATGNFHSLNTLFDPHARFEVGDKDIIGRHEWQEHLRHLRLHEVKFTWRRFRIFDGRVEMRGDLRVDGTIDGQHDDETIHTHMIILKVNGRWHIDSMHVH | 1.08
SEHDHHSEWMSRLMFEAWLTGDEDFIMHLADPNTRSHLHYGDKEVNLHGRESFKRMVEELHRELGANHRDLKEVRLQGDKSLLRLEVRVGDKRREQHIIIIIVNGRVKSITVEVR | 0.874
DEDHEIATKVLELWERLINTGDEEQMSRLADPNTKITIGEKDIVGREDIIKDMRHIRWKVKDFKIHDSSVIDGRIHLDGEMHVIFDVNGRRHERTIRMEIIVEKIDGRWVFKSIHIE | 1.3
DHEDKLHEEAFRRWLHVFKTGNEDLIRRLVDPHVKLEVDGQDFHGREELLRFLIERIRNLGIKVSDVKVKHVDIQGDKLDIDVRFIVEFNGRRTEINEWLIMEKIDGRWVVQSIHIR | 1.3
DEDEHHSELASRLMHETTRTGDETSFLNLADPDTRLDINGREFIGREEWVKFFHKWSKHLGAKVIDTRFNDLRVIDGRIKLDMEYIVHVGDKTMHHKMIVFALKVNGRWHLESLKFE | 0.436
DDLEEEAHKFLRIWLKNIITGDEDTLIELMDPRPRTIFNGVDLHGREDTSKRLSELRFNMRIDDIHVEVQGDKAIALSDVSYELIYNGRHVHLKSEIILTVRKFDGKWKAERLEIRIK | 1.67
DKREEELHWAVELLIDIFRTGDERLLIELIDPHARSEVGDKTLHGRQHAEVEHRDWGLDRVETHIHDYKVQGNKLHLDMSTVVNGKDIKISFIAEKYNGRWHLKRIIIR | 1.27
SEDERDARHYLKEFEHAIETGDEHRLDELLDPNVKIDIDGVEHHGREWFRTLEHHIRVHSRVELKHIEVYGNFIVMDGHLHREIRINGRRIETHSRTIIIMRKVNGRWLVSELRFR | 1.52
DDHERDAERAIKELMHNFETGNEDFLNEMADPNMRVIINGKEHIGWENFRHHLRRVLHELRIKRIHIRQVRVQGEWVNVISEFIGEVDGREHRVETSYILLKVNGRWTLHSMYFE | 2.69
HEEHEKLRQLIEWYLEMLRTGDEESWLHLADPHVRNDVIYDGRHFQSHGRDRALDLLRLMLDLLGAKHLEVKRYRVIDGRVELDGRSRVGDKYQEMHLHLDVFNGRIHEMRIEIR | 0.58
